Measurements taken from patent US20130266605A1, “PEPTIDE INHIBITORS OF CD40L SIGNALING AND USES THEREFOR” (PHYLOGICA LIMITED, priority 2010, published 2013).
Entries after “also recorded” stand apart in the source; their conditions may differ. Read-outs that look alike come from different tables or passages of the source. Positions of bridges follow the written chain, without caps; N, C: chain ends. Residues, ends and D or L forms follow the SMILES beside them. Chains are numbered I, II in the order given. No end group written: not given here. PEG = not defined here

Columns and labels:
CD40L-CD40 interaction = molecular target: T1, CD40L-CD40 interaction (Homo sapiens, UniProt P29965); assay: Chemiluminescent proximity assay (Alphascreen); format: binding; details: Alphascreen proximity assay; monomeric and dimeric peptides (Table 5); read-out: EC50
T1 sequence (P29965 113-261 limits assumed): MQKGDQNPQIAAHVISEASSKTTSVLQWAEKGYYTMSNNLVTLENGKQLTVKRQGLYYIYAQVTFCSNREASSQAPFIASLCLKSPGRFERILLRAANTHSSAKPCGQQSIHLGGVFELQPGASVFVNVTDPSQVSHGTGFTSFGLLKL
Method: In one example, the Alphascreen assay (PerkinElmer) was employed according to the manufacturer's instructions.
Homodimers and heterodimers were also assayed by chemiluminescent proximity assay for their ability to inhibit CD40L-CD40 interaction.

TNFα-induced cytoxicity = assay: TNFα-induced cytotoxicity control assay; format: cell-based; details: in words, specificity control
Method: (§1) As a control in these assays, LPS-induced expression of CD86 mediated by the Toll-like receptors TLR 2/4, and TNFα-induced cytoxicity, were also assayed to exclude effects mediated by ligands other than CD40L.

[1] = system: LPS-induced expression of CD86 mediated by the Toll-like receptors TLR 2/4; assay: LPS-induced CD86 expression control assay; format: cell-based; details: in words; specificity control; listed as M1—18S
Method: as §1

[2] = molecular target: CD40L-induced CD86 expression on primary B-cells (UniProt P29965); assay: Inhibition of CD40L-induced CD86 expression on primary B-cells (FACS); details: in words
Method: In one example, the ability of a peptide, analog or derivative of the invention to inhibit or reduce or delay expression of CD86 on primary B-cells was determined in the presence and absence of the peptides, analogs and derivatives of the invention. In particular, CD86 expression was determined by FACS.

CD40 ligand, P29965 [3] = molecular target: T2, CD40 ligand, P29965; assay: Octet Red label-free (BLI)
T2 chain: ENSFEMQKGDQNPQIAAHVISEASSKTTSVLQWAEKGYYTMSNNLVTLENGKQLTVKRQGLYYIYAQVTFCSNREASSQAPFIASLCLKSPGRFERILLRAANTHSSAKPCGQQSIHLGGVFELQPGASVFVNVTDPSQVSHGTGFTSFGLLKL

CD40 ligand, P29965 [4] = molecular target: T2, CD40 ligand, P29965; assay: Alphascreen, unmodified peptide, inhibition of CD40L/CD40-Fc
CD40 ligand [5] = molecular target: T3, CD40 ligand (UniProt P29965 108-261, limits assumed); assay: cell-based or functional assay
T3 sequence (looked up): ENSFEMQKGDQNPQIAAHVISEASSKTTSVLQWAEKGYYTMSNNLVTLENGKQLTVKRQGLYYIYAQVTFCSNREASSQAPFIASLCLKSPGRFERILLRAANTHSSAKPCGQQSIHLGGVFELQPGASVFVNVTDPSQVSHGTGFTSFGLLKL

CD40 ligand [6] = molecular target: T3, CD40 ligand; assay: Alphascreen proximity assay, peptide titrated; blocked interaction: CD40L with CD40
CD40 ligand [7] = molecular target: T3, CD40 ligand; assay: Alphascreen proximity assay, peptide titrated against 0.75nM CD40L; blocked interaction: CD40L with CD40
CD40 ligand [8] = molecular target: T3, CD40 ligand; assay: Alphascreen proximity assay, inhibition of CD40L-CD40
CD40 ligand [9] = molecular target: T3, CD40 ligand; assay: Alphascreen proximity assay, peptide dimer titrated against 0.75nM CD40L; blocked interaction: CD40L with CD40; signal falls from about 12500 to about 4000 units
CD40 ligand [10] = molecular target: T3, CD40 ligand; assay: Octet Red label-free (BLI)
CD40 ligand [11] = molecular target: T3, CD40 ligand; assay: Alphascreen, unmodified peptide, inhibition of CD40L/CD40-Fc
CD40 ligand [12] = molecular target: T3, CD40 ligand; assay: phage-displayed peptide on bound CD40L, soluble CD40L as competitor
CD40 ligand [13] = molecular target: T3, CD40 ligand; assay: Alphascreen proximity assay (1hr), peptide titrated against 0.75nM CD40L; blocked interaction: CD40L with CD40; signal falls from about 21000 to about 3000 units
CD40 ligand [14] = molecular target: T3, CD40 ligand; assay: Octet Red label-free (BLI); remark: listed apart in the source
CD40 ligand [15] = molecular target: T3, CD40 ligand; assay: Alphascreen, PEGylated peptide, inhibition of CD40L/CD40-Fc
CD40 ligand [16] = molecular target: T3, CD40 ligand; assay: from the KD values of Table 2 (Octet Red)
CD40 ligand [17] = molecular target: T3, CD40 ligand; assay: Alphascreen proximity assay (1hr), peptide titrated against 0.75nM CD40L; blocked interaction: CD40L with CD40; signal falls from about 27500 to about 5000 units
CD40 ligand [18] = molecular target: T3, CD40 ligand; assay: Alphascreen proximity assay, peptide dimer titrated against 0.75nM CD40L; blocked interaction: CD40L with CD40; signal falls from about 23000 to about 4000 units
CD40 ligand [19] = molecular target: T3, CD40 ligand; assay: cell-based or functional assay; remark: listed apart in the source

Sequence of CD40L-induced CD86 expression on primary B-cells (P29965 whole entry): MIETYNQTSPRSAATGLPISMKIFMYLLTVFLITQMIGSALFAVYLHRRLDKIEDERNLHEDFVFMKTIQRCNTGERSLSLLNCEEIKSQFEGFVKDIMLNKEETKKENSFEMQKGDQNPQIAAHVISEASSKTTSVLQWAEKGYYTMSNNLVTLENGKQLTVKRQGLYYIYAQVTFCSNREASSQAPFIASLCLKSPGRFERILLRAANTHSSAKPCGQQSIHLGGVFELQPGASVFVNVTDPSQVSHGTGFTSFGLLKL
Sequence of CD40L-induced CD86 expression on primary B-cells (P25942 21-277 partner): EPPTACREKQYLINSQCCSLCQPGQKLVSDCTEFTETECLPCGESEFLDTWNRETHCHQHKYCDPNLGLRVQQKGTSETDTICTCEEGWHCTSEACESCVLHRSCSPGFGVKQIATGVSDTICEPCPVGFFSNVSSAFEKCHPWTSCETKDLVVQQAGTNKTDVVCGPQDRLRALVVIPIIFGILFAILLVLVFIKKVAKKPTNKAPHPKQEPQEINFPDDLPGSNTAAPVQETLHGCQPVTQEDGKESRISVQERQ

Molecule: CC[C@H](C)[C@H](NC(=O)[C@H](CO)NC(=O)[C@H](Cc1ccccc1)NC(=O)[C@@H](NC(=O)[C@H](CC(N)=O)NC(=O)[C@H](CCCCN)NC(=O)[C@@H](NC(=O)[C@H](CO)NC(=O)[C@H](Cc1ccccc1)NC(=O)[C@@H]1CCCN1C(=O)[C@@H](N)Cc1c[nH]cn1)[C@@H](C)CC)C(C)C)C(=O)N[C@@H](Cc1c[nH]c2ccccc12)C(=O)N[C@@H](CC(N)=O)C(=O)N[C@@H](Cc1ccccc1)C(=O)N[C@@H](Cc1ccccc1)C(=O)N[C@@H](CO)C(=O)N[C@H](C(=O)N[C@@H](Cc1ccc(O)cc1)C(=O)O)C(C)C [CD40L M1_6s] (H-HPFSIKNVFSIWNFFSVY-OH; N-terminus and C-terminus assumed)
- EC50 (CD40L-CD40 interaction): 0.122 to 0.323 nM
- significant inhibition of TNFα-induced cell death / cytoxicity (TNFα-induced cytoxicity): lack of inhibition and none

Molecule: CC[C@H](C)[C@H](NC(=O)[C@H](CO)NC(=O)[C@H](Cc1c[nH]c2ccccc12)NC(=O)[C@H](CCC(N)=O)NC(=O)[C@@H](NC(=O)[C@@H]1CCCN1C(=O)[C@H](Cc1ccccc1)NC(=O)[C@H](Cc1ccccc1)NC(=O)[C@H](Cc1c[nH]c2ccccc12)NC(=O)CNC(=O)[C@H](Cc1ccc(O)cc1)NC(=O)[C@H](CCCCN)NC(=O)[C@H](CC(C)C)NC(=O)[C@@H](NC(=O)[C@H](Cc1c[nH]cn1)NC(=O)[C@H](CO)NC(=O)[C@H](CCCNC(=N)N)NC(=O)[C@H](Cc1ccc(O)cc1)NC(=O)[C@@H]1CCCN1C(=O)[C@@H](NC(=O)[C@H](Cc1ccccc1)NC(=O)[C@@H]1CCCN1C(=O)[C@@H](N)CC(C)C)C(C)C)C(C)C)C(C)C)C(=O)N[C@@H](Cc1ccccc1)C(=O)N[C@@H](C)C(=O)N[C@H](C(=O)N[C@@H](CC(C)C)C(=O)N1CCC[C@H]1C(=O)N[C@@H](Cc1ccccc1)C(=O)N[C@@H](CCC(N)=O)C(=O)N[C@@H](Cc1ccc(O)cc1)C(=O)N[C@@H](CC(C)C)C(=O)N[C@@H](Cc1c[nH]cn1)C(=O)N[C@@H](CCCNC(=N)N)C(=O)N[C@@H](CO)C(=O)N[C@@H](CCCNC(=N)N)C(=O)O)C(C)C [CD40L M1_18s] (H-LPFVPYRSHVLKYGWFFPVQWSIFAVLPFQYLHRSR-OH; N-terminus and C-terminus assumed)
- inhibition of LPS-induced CD86 expression [1]: lack of concentration-dependent inhibition; also recorded: no significant inhibition
- significant inhibition of TNFα-induced cell death / cytoxicity (TNFα-induced cytoxicity; listed as M1—18*S): lack of inhibition
- significant inhibition of TNFα-induced cell death / cytoxicity (TNFα-induced cytoxicity; listed as M1—18S): none
- inhibition of CD40L-induced CD86 expression on primary B-cells [2]: concentration-dependent inhibition

Molecule: RIESLEGEMWLINPFNGETLDEHTLEVWLK (modifications not checked) [CD40L M8_748]
- Kd (CD40 ligand, P29965 [3]): 5 nM
- EC50 (CD40 ligand, P29965 [4]): 184 nM

Molecule: HPFSIKNVFSIWNFFSVY (Cys-to-Ser derivative) [CD40L M1_6s]
- EC50, inhibition of CD40L-induced CD86 expression on primary B-cells (CD40 ligand [5]): 323 nM
- IC50 (read off the curve) (CD40 ligand [6]): ~300 nM
- IC50 (read off the curve) (CD40 ligand [7]): ~300 nM

B1: Cys_M1_6S homodimer (peptide)
peptide: CHPFSIKNVFSIWNFFSVY
modifications: also: homodimer: disulfide between the N-terminal cysteines of two chains
notes: also called 6-6 dimer; homodimer of the Phylomer peptide M1-6
- EC50, inhibition of CD40L-induced CD86 expression on primary B-cells (CD40 ligand [5]): 48.9 nM
- EC50 (CD40 ligand [8]): 0.0489 nM
- EC50 (CD40 ligand [9]): 48.9 nM

Molecule: HPFSIKNVFCIWNFFSVY (Base peptide) [CD40L M1_6]
- Kd (CD40 ligand [10]): 24 nM
- EC50 (CD40 ligand [11]): 440 nM
- IC50 (CD40 ligand [12]): 16.3 nM

B2: CD40L M1_9s (peptide)
peptide: PPRYNLFFLFRFYSSFRRDYLYF
notes: Cys-to-Ser derivative; also called M1-9Sa
- EC50, inhibition of CD40L-induced CD86 expression on primary B-cells (CD40 ligand [5]): 564 nM
- EC50 (CD40 ligand [8]): 0.564 nM
- EC50 (CD40 ligand [13]): 564 nM

Molecule: PPRYNLFFLFRFYCSFRRDYLYF (Base peptide) [CD40L M1_9]
- Kd (CD40 ligand [10]): 8 nM
- EC50 (CD40 ligand [11]): 370 nM
- IC50 (CD40 ligand [12]): 81.1 nM

Molecule: PRWVRNRFYSLFVPSGVQRGGIHLWFSNWVR (Cys-to-Ser derivative) [CD40L M1_50s]
- Kd (CD40 ligand [14]): 600 nM

Molecule: {PEG}-PFTWRPTIFWIIQLIVYMRHF (reading uncertain) [PEGylated CD40L M7_206]
- EC50 (CD40 ligand [15]): 88 nM

B3: CD40L D1_0014 (peptide)
peptide: PFTWRPTIFWIIQLIVYMRHFGGGGSRSELLRENICRYVSLFDHPLQRNTPLDELRFVIFDTETSGFDLVKDRILSIR
notes: Single-chain fusion of two peptide monomers; also called heterodimeric peptide of CD40L M1-206 and a second monomer with tetra-glycine spacer
- fold higher affinity than the base monomeric peptide CD40L M1-206 (CD40 ligand [16]): 6 fold

B4: CD40L M8_747 (peptide)
peptide: LAEHAVWSLKCFPDWEWYNINIFGTDDPNHFWVECDGHGKILFPGYPEGYYENHFLHSFELED
modifications: not checked
- Kd (CD40 ligand, P29965 [3]): 8 nM
- EC50 (CD40 ligand, P29965 [4]): 197 nM

Molecule: DAAGREFFQIAGLFSFRHHWWQA [CD40L M1_30s]
- Kd (CD40 ligand [14]): 400 nM

Molecule: {PEG}-SIQYHWRYSRFKYYFQLIWVYYCHV (reading uncertain) [PEGylated CD40L M1_82]
- EC50 (CD40 ligand [15]): 120 nM

B5: M7_189S (peptide)
peptide: LLLFFFSPPFSIFSFSLTTLS
notes: Cys-to-Ser derivative; also called M1-189Sa
- EC50, inhibition of CD40L-induced CD86 expression on primary B-cells (CD40 ligand [5]): 176 nM
- EC50 (CD40 ligand [8]): 0.176 nM
- EC50 (CD40 ligand [17]): 176 nM

B6: Cys_M1_6S-Cys_M1_9S heterodimer (peptide)
peptide 1: CHPFSIKNVFSIWNFFSVY
peptide 2: CPPRYNLFFLFRFYSSFRRDYLYF
modifications: disulfide I:1-II:1
notes: also called 6-9 dimer
- EC50, inhibition of CD40L-induced CD86 expression on primary B-cells (CD40 ligand [5]): 35 nM
- EC50 (CD40 ligand [8]): 0.03 nM
- EC50 (CD40 ligand [18]): 30 nM

Molecule: CHPFSIKNVFSIWNFFSVY [Cys_M1_6S]
- EC50, inhibition of CD40L-induced CD86 expression on primary B-cells (CD40 ligand [5]): 306 nM
- EC50 (CD40 ligand [8]): 0.265 nM
- IC50 (read off the curve) (CD40 ligand [6]): ~300 nM
- IC50 (read off the curve) (CD40 ligand [7]): ~300 nM

Molecule: LPFVPYRSHVLKYGWFFPVQWSIFAVLPFQYLHRSR [CD40L M1_18s]
- EC50, inhibition of CD40L-induced expression of CD86 on primary B-cells (FACS) (CD40 ligand [19]): ~743 nM
- EC50, inhibition of CD40L-induced CD86 expression on primary B-cells (CD40 ligand [5]): 743 nM

Molecule: LPFVPYRSHVLKYGWFFPVQWSIFAVLPFQYLHRCR (Base peptide) [CD40L M1_18]
- IC50, inhibition of CD40L-induced expression of CD86 on primary B-cells (CD40 ligand [19]): < 500 nM
- Kd (CD40 ligand [10]): 2.3 nM
- EC50 (CD40 ligand [11]): 350 nM
- IC50 (CD40 ligand [12]): 25 nM
